The labels stand for the following.
B1: C18 (antibody, human IgG4 S228P, lambda, V domains shown)
VH: EVQLLESGGGLVQPGGSLRLSCAASGFTFSNYDMSWVRQAPGKGLEWVSGISHSSGSKYYADSVKGRFTISRDNSKNTLYLQMNSLRAEDTAVYYCARDPLPCLIPKCSYYYAMDVWGQGTLVTVSS
VL: QSVLTQPPSAPGTPGQRVTISCSGSSSNIGSNAVTWYQQLPGTAPKLLIYADSHRPSGVPDRFSGSKSGTSASLAISGLRSEDEADYYCGSWDDSLNAYVFGGGTKLTVLG
B2: C17 (antibody, human IgG4 S228P, lambda, V domains shown)
VH: EVQLLESGGGLVQPGGSLRLSCAASGFTFSDYSMSWVRQAPGKGLEWVSVIYPDDGNTYYADSVKGRFTISRDNSKNTLYLQMNSLRAEDTAVYYCARGSIWWLSLIPSSYNAMDVWGQGTLVAVSS
VL: QSVLTQPPSASGTPGQRVTISCSGSSSNIGNNAVNWYQQLPGTAPKLLIYANSHRPSGVPDRFSGSKSGTSASLAISGLRSEDEADYYCGAWDASLNGYVFGGGTKLTVLG
B3: C15 (antibody, human IgG4 S228P, lambda, V domains shown)
VH: EVQLLESGGGLVQPGGSLRLSCAASGFTFSSYSMSWVRQAPGKGLEWVSSISPNGGNKYYADSVKGRFTISRDNSKNTLYLQMNSLGAEDTAVYYCAKDPYNIYQPLFDYWGQGTLVTVSS
VL: QSVLTQPLSASGTPGQRVTISCSGSSSNIGNNYVNWYQQLPGTAPKLLIYANSNRPSGVPDRFSGSKSGTSASLAISGLRSEEEADYYCGTWDASLSAYVFGGGTKLTVLG
B4: 4R9 (antibody, human IgG4 S228P, lambda, V domains shown)
VH: EVQLLESGGGLVQPGGSLRLSCAASGFTFSNYAMSWVRQAPGKGLEWVSVISHGGGSIYYADSVKGRLTISRDNSKNTLYLQMNSLRAEDTAVYYCARDPTKGYAPTFDYWGQGTLVTVSS
VL: QSVLTQPPSASGTPGQRVTISCSGSSSNIGNNYVSWYQQLPGTAPKLLIYADSRRPSGVPDRFSGSKSGTSASLAISGLRSEDEADYYCGAWDLSLNGYVFGGGTKLTVLG
notes: also called C25-derived clone 4R9
B5: C25 (antibody, human IgG4 S228P, lambda, V domains shown)
VH: EVQLLESGGGLVQPGGSLRLSCAASGFTFSNYAMSWVRQAPGKGLEWVSVISHGGGSIYYADSVKGRLTISRDNSKNTLYLQMNSLRAEDTAVYYCARDPTKGYAPTFDYWGQGTLVTVSS
VL: QSVLTQPPSASGTPGQRVTISCSGSSSNIGNNYVSWYQQLPGTAPKLLIYADSKRPSGVPDRFSGSKSGTSASLAISGLRSEDEADYYCGAWDASLNGYVFGGGTKLTVLG
notes: Made in ExpiHEK293F cells, protein A purified. huIgG4 is the isotype control and anti-huIgG4 the detection reagent; the isotype is not otherwise stated; also called anti-CEACAM1 antibody C25
B6: 4R26 (antibody, human IgG4 S228P, lambda, V domains shown)
VH: EVQLLESGGGLVQPGGSLRLSCAASGFTFSNYAMSWVRQAPGKGLEWVSVISHGGGSIYYADSVKGRLTISRDNSKNTLYLQMNSLRAEDTAVYYCARDPTKGYAPTFDYWGQGTLVTVSS
VL: QSVLTQPPSASGTPGQRVTISCSGSSSNIGNNYVSWYQQLPGTAPKLLIYADSKRLSGVPDRFSGSKSGTSASLAISGLRSEDEADYYCGAWDGRLNGYVFGGGTKLTVLG
notes: also called C25-derived clone 4R26
B7: 4R9_H4-n20 (antibody, human IgG4 S228P, lambda, V domains shown)
VH: EVQLLESGGGLVQPGGSLRLSCAASGFNFSNYAMSWVRQAPGKGLEWVSVISHGGGSIYYADSVKGRLTISRDNSKNTLYLQMNSLRAEDTAVYYCARDPTKGYAPTFDYWGQGTLVTVSS
VL: QSVLTQPPSASGTPGQRVTISCSGSSSNIGNNYVSWYQQLPGTAPKLLIYADSRRPSGVPDRFSGSKSGTSASLAISGLRSEDEADYYCGAWDLSLNGYVFGGGTKLTVLG
notes: also called C25-derived clone 4R9_H4-n20
B8: 4R9_H2-2 (antibody, human IgG4 S228P, lambda, V domains shown)
VH: EVQLLESGGGLVQPGGSLRLSCAASGFTFSNYAMSWVRQAPGKGLEWVSVISHGGGSIYYADSVKGRLTISRDNSKNTLYLQMNSLRAEDTAVYYCARDPTKGYAPLFDYWGQGTLVTVSS
VL: QSVLTQPPSASGTPGQRVTISCSGSSSNIGNNYVSWYQQLPGTAPKLLIYADSRRPSGVPDRFSGSKSGTSASLAISGLRSEDEADYYCGAWDLSLNGYVFGGGTKLTVLG
notes: also called C25-derived clone 4R9_H2-2

As a reminder, the Kd is the constant that tells how readily two partners part at equilibrium. By koff is commonly meant the rate constant with which the complex falls apart. As a reminder, the kon is a measure of how fast the partners come together.

One assay deals with T1, recombinant human CEACAM-3/CD66d protein (Sino Biological; Cat. No. 11933-H08H) (human, UniProt P40198 35-155).
T1 construct: Bought protein; also called HCCM3
T1 sequence (looked up): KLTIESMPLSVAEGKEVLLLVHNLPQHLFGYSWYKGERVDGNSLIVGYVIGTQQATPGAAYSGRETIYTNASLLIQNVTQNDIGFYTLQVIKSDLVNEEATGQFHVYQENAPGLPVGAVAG
As to the kind of experiment: ELISA on coated antigen (0.25 µg/ml), HRP anti-human IgG Fc, OD450. The text has this:
All of the recombinant human CEACAM-1/CD66a protein (R&D systems; Cat No. 2244-CM, HCCM1), recombinant human CEACAM-5/CD66e protein (R&D systems; Cat. No. 4128-CM, HCCM5), recombinant human CEACAM-6/CD66c protein (R&D systems; Cat. No. 3934-CM, HCCM6), recombinant human CEACAM-3/CD66d protein (Sino Biological; Cat. No. 11933-H08H, HCCM3), human B7-H5/Gi24/VISTA protein (Sino Biological; Cat. No. 13482-H08H, HVISTA), recombinant human CEACAM-1/CD66a protein Bulk (R&D systems; Cat. No. 2244-CM, HCCM1 (bulk)), recombinant human CEACAM1-N domain-Kappa protein (Mogam, in-house production, HCCM1-N domain-kappa), and BSA protein (2.5 μg each) were dissolved in 10 ml of PBS, respectively, and dispensed into a 96-well plate at 100 μl/well, which was incubated at 4° C. overnight. Thereafter, each well was treated with 300 μl of 1% (v/v) bovine serum albumin, and incubated at 37° C. for 1 hour.
The diluted antibodies were dispensed into each well coated with each protein at 100 μl/well, and incubated at 37° C. for 1 hour. Then, each well was washed 3 times with a washing buffer prepared by diluting 10 μl of Tween 20 (Sigma-Aldrich; Cat. No. P9146) in 990 μl of PBS. Thereafter, 2 μl of HRP-conjugated human anti-IgG-Fc antibody (anti-human IgG Fc, Sigma Cat. No. A0170) was diluted in 10 ml of PBS, added to the wells at 100 μl/well, and incubated for 1 hour.
After completion of the reaction, the wells were washed three times with the washing buffer, and 100 μl of TMB solution was added to each well to induce color development. Then, 100 μl of 2 M H₂SO₄ was added to each well to stop the reaction, and the absorbance was measured at a wavelength of 450 nm.
For orientation: In an ELISA, binding on a coated surface is turned into a signal by an enzyme label.
For B1, the binding result was “no binding (tested: 3 µg/ml (single concentration))”.
Turning to B2, the binding result is “no binding (tested: 3 µg/ml (single concentration))”.
As to B3, the binding result is on record as “no binding (tested: 3 µg/ml (single concentration))”.

A further assay concerns the target T2, recombinant human CEACAM-1/CD66a protein (R&D systems; Cat. No. 2244-CM) (human, UniProt P13688 35-428).
T2 construct: Bought protein; captured on anti-His (His1K) biosensors in the Octet assay, so it carries a His tag; also called HCCM1; recombinant CEACAM-1/CD66a protein
T2 sequence (looked up): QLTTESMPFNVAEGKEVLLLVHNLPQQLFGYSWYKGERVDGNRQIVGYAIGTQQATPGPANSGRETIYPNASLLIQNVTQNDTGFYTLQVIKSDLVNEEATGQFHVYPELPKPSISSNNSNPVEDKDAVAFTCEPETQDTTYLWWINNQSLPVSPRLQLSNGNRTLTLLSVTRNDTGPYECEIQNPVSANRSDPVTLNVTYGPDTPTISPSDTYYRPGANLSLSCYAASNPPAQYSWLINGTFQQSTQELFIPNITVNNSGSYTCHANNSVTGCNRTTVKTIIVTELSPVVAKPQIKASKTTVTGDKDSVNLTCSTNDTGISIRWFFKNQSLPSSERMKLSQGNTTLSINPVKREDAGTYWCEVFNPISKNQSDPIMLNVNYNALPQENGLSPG
Nature of the assay: Octet QKe biolayer interferometry, anti-His (HIS1K) biosensors, antibody 6.25-400 nM. How it is done: The last well in each row was with a sample at the antibody concentration of 0 nM. Recombinant human CEACAM1 protein (R&D Systems; Cat. No. 2244-CM) was diluted to obtain a concentration of […], and dispensed into each well of another column at 200 μl/well.
As for the washing buffer, neutralization buffer and baseline buffer, Reagent/Kinetics buffer (10×) (Fortebio; Cat. No. 18-1092) were 1:10 diluted and dispensed into each well of a column in a row at 200 μl/well, and the regeneration buffer was dispensed into each well at 200 μl/well. Greiner 96-well plate was separately prepared, Reagent/Kinetics buffer (1×) was dispensed into each well of the number of biosensors to be used in a row at 200 μl/well, and Biosensors/Anti-His (His1K) (Fortebio; Cat. No. 18-5120) cassette was installed.
Consider B4, for which the dissociation constant Kd was 3.39 nM, the dissociation rate constant (koff) is 0.000567 s⁻¹ and the association rate constant (kon) stood at 163000 M⁻¹ s⁻¹.
On to B5, for which the dissociation constant (Kd) was found to be 34.9 nM, the off-rate constant (koff) stood at 0.000505 s⁻¹ and the on-rate (kon) was found to be 18200 M⁻¹ s⁻¹.
In the case of B6, the Kd was 1.82 nM, the dissociation rate constant (koff) worked out at 0.000266 s⁻¹ and the on-rate constant (kon) turned out to be 133000 M⁻¹ s⁻¹.
B7: the dissociation constant (Kd) was 39 nM, the koff was found to be 0.000333 s⁻¹ and the kon amounted to 26100 M⁻¹ s⁻¹.
For B8, in that order: 3.54 nM, 0.000627 s⁻¹ and 169000 M⁻¹ s⁻¹.

The record behind these values is US20200109196A1 (MOGAM INSTITUTE FOR BIOMEDICAL RESEARCH, published 2020).
